Earlier results on 1 substance are cited in patent US9358478B2, “Spray-drying apparatus and methods of using the same” (Bend Research, Inc., priority 2010, dated 2016).

For the series the following is noted: in words.

Consider Peptide YY (PYY) [Active Agent 3], for which the solubility in water result is “soluble”.
